Test results as given in the supplement of paper PMC10126150.
± gives the standard deviation of the averaged measurements.

test system: ATP; experiment: switch fluorescence ratio, 500 uM ATP over buffer (Cy3 cluster intensity, sum of 5 cycles each) (fold (ratio)); higher = stronger signal-on switching upon ATP binding; sequences stand for … in TCGTCGGCAGCGTCAGATGTGTATAAGAGACAGTTTTTTTTTTTTTTTTTTTTTTTTT…TC; details: aptamer strand: ATP DNA aptamer (quencher-CACCTGGGGGAGTATTGCGGAGGAAGG + anchor), 100 nM annealed; ATP concentration: 500 uM
Outline: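 Clusters carrying Cy3-labelled switching strands on a modified Illumina MiSeq flow-cell were annealed to 100 nM quencher-labelled ATP aptamer and imaged in selection buffer. They were imaged again after 15 min with 500 uM ATP at 22 °C, over five buffer/ATP cycles with NaOH stripping and re-annealing in between. For each cluster, the fluorescence ratio is the summed Cy3 intensity of the target cycles divided by that of the buffer cycles, averaged per switch-domain sequence. Clusters outside 100-1000 RFU were left out.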
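Note: ATP exposure 15 min at 22 °C before imaging.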

For TGCGTACTAT, which switch fluorescence ratio is on record?
The switch fluorescence ratio was 1.06 ± 0.1.

TGCGTAGGAA was tested. Which switch fluorescence ratio did it give?
Its switch fluorescence ratio is 1.061 ± 0.0049.

With TGCGTATTTT as the sequence, how does the switch fluorescence ratio read?
Its switch fluorescence ratio is 1.025 ± 0.0031.

With TGCGTCAGGC as the sequence, how does the switch fluorescence ratio read?
The switch fluorescence ratio was 1.09 ± 0.045.

Which switch fluorescence ratio does the source give for TGCGTTAAAA here?
The switch fluorescence ratio was 0.994 ± 0.042.

For TGCGTTCAAG, which switch fluorescence ratio is on record?
The switch fluorescence ratio was 0.9721 ± 0.0056.

How did the switch fluorescence ratio turn out when TGCGTTCGGC was run?
The switch fluorescence ratio was 0.963 ± 0.041.

With TGCGTTGCTA as the sequence, how does the switch fluorescence ratio read?
The switch fluorescence ratio was 0.996 ± 0.038.

Which switch fluorescence ratio does the source give for TGCTAACAGG here?
Its switch fluorescence ratio is 1.022 ± 0.0078.

How did the switch fluorescence ratio turn out when TGCTAGAACT was run?
The switch fluorescence ratio was 0.972 ± 0.019.

How did the switch fluorescence ratio turn out when TGCTAGGGTC was run?
Its switch fluorescence ratio is 0.994 ± 0.025.

TGCTAGGTCA was tested. Which switch fluorescence ratio did it give?
Its switch fluorescence ratio is 0.969 ± 0.0059.

Which switch fluorescence ratio does the source give for TGCTATGGGG here?
The switch fluorescence ratio was 1 ± 0.016.

For TGCTATGGGT, which switch fluorescence ratio is on record?
The switch fluorescence ratio was 0.975 ± 0.023.

With TGCTCCGTCG as the sequence, how does the switch fluorescence ratio read?
The switch fluorescence ratio was 1.2 ± 0.039.

For TGCTCCTTCT, which switch fluorescence ratio is on record?
Its switch fluorescence ratio is 1.09 ± 0.011.

Which switch fluorescence ratio does the source give for TGCTCTGGGG here?
The switch fluorescence ratio was 0.996 ± 0.015.

TGCTCTTTGG was tested. Which switch fluorescence ratio did it give?
The switch fluorescence ratio was 1 ± 0.025.

With TGCTCTTTTT as the sequence, how does the switch fluorescence ratio read?
Its switch fluorescence ratio is 1 ± 0.019.

For TGCTGGCGGC, which switch fluorescence ratio is on record?
Its switch fluorescence ratio is 0.982 ± 0.03.

TGCTGGGATT was tested. Which switch fluorescence ratio did it give?
Its switch fluorescence ratio is 1.02 ± 0.044.

Which switch fluorescence ratio does the source give for TGCTGGGCTG here?
Its switch fluorescence ratio is 1.01 ± 0.025.

How did the switch fluorescence ratio turn out when TGCTGGGGAC was run?
Its switch fluorescence ratio is 0.992 ± 0.051.

With TGCTGGGGGG as the sequence, how does the switch fluorescence ratio read?
The switch fluorescence ratio was 0.981 ± 0.023.

TGCTGGGGTT was tested. Which switch fluorescence ratio did it give?
The switch fluorescence ratio was 0.9764 ± 0.0047.

With TGCTGGTGTA as the sequence, how does the switch fluorescence ratio read?
The switch fluorescence ratio was 1.02 ± 0.025.

Which switch fluorescence ratio does the source give for TGCTGTACGA here?
The switch fluorescence ratio was 1.11 ± 0.012.

TGCTGTACGG was tested. Which switch fluorescence ratio did it give?
The switch fluorescence ratio was 1.01 ± 0.046.

How did the switch fluorescence ratio turn out when TGCTGTGGGA was run?
Its switch fluorescence ratio is 0.9689 ± 0.006.

How did the switch fluorescence ratio turn out when TGCTGTGTAC was run?
The switch fluorescence ratio was 1.084 ± 0.0095.

With TGCTGTTCTG as the sequence, how does the switch fluorescence ratio read?
The switch fluorescence ratio was 1.032 ± 0.0019.

Which switch fluorescence ratio does the source give for TGCTTAAGCA here?
The switch fluorescence ratio was 0.982 ± 0.058.

With TGCTTAGGTT as the sequence, how does the switch fluorescence ratio read?
The switch fluorescence ratio was 0.988 ± 0.011.

How did the switch fluorescence ratio turn out when TGCTTATGGT was run?
The switch fluorescence ratio was 0.965 ± 0.029.

How did the switch fluorescence ratio turn out when TGCTTCGGGA was run?
Its switch fluorescence ratio is 1.1288 ± 0.0008.

For TGCTTCGTGC, which switch fluorescence ratio is on record?
The switch fluorescence ratio was 0.996 ± 0.012.

For TGCTTCTCCA, which switch fluorescence ratio is on record?
The switch fluorescence ratio was 1.03 ± 0.036.

For TGCTTGAGGG, which switch fluorescence ratio is on record?
Its switch fluorescence ratio is 1.004 ± 0.0097.

For TGCTTTACAT, which switch fluorescence ratio is on record?
The switch fluorescence ratio was 1.03 ± 0.014.

How did the switch fluorescence ratio turn out when TGCTTTACGG was run?
The switch fluorescence ratio was 1.009 ± 0.0082.

How did the switch fluorescence ratio turn out when TGCTTTTCCG was run?
The switch fluorescence ratio was 1.1 ± 0.07.

For TGCTTTTGGT, which switch fluorescence ratio is on record?
Its switch fluorescence ratio is 0.988 ± 0.022.

How did the switch fluorescence ratio turn out when TGGAAAAATT was run?
Its switch fluorescence ratio is 1.03 ± 0.04.

With TGGAAAGAAG as the sequence, how does the switch fluorescence ratio read?
The switch fluorescence ratio was 1.02 ± 0.064.

For TGGAAGAGGC, which switch fluorescence ratio is on record?
The switch fluorescence ratio was 1.47 ± 0.64.

Which switch fluorescence ratio does the source give for TGGAAGGGTA here?
The switch fluorescence ratio was 0.9903 ± 0.0012.

For TGGAAGGTAT, which switch fluorescence ratio is on record?
The switch fluorescence ratio was 0.9795 ± 0.0087.

How did the switch fluorescence ratio turn out when TGGAAGGTTG was run?
Its switch fluorescence ratio is 0.9808 ± 0.0066.

TGGAATGGTG was tested. Which switch fluorescence ratio did it give?
Its switch fluorescence ratio is 1.05 ± 0.015.

How did the switch fluorescence ratio turn out when TGGAATTAGT was run?
Its switch fluorescence ratio is 0.986 ± 0.038.

With TGGACAGGGT as the sequence, how does the switch fluorescence ratio read?
The switch fluorescence ratio was 0.999 ± 0.017.

With TGGACATGGT as the sequence, how does the switch fluorescence ratio read?
Its switch fluorescence ratio is 0.9856 ± 0.005.

TGGACCAGTT was tested. Which switch fluorescence ratio did it give?
Its switch fluorescence ratio is 1.008 ± 0.0033.

With TGGACGAAGT as the sequence, how does the switch fluorescence ratio read?
Its switch fluorescence ratio is 1.01 ± 0.023.

With TGGACGTGTC as the sequence, how does the switch fluorescence ratio read?
Its switch fluorescence ratio is 1 ± 0.019.

How did the switch fluorescence ratio turn out when TGGACTATTA was run?
Its switch fluorescence ratio is 1.015 ± 0.01.

Which switch fluorescence ratio does the source give for TGGACTTTTT here?
The switch fluorescence ratio was 0.971 ± 0.057.

TGGAGAAATA was tested. Which switch fluorescence ratio did it give?
Its switch fluorescence ratio is 1.01 ± 0.048.

TGGAGATTAG was tested. Which switch fluorescence ratio did it give?
Its switch fluorescence ratio is 1.01 ± 0.054.

For TGGAGCGGTT, which switch fluorescence ratio is on record?
The switch fluorescence ratio was 1.03 ± 0.032.

How did the switch fluorescence ratio turn out when TGGAGGAGAG was run?
The switch fluorescence ratio was 0.99 ± 0.018.

For TGGAGGGGCA, which switch fluorescence ratio is on record?
The switch fluorescence ratio was 1.03 ± 0.022.

For TGGAGGGGGT, which switch fluorescence ratio is on record?
The switch fluorescence ratio was 1.09 ± 0.28.

With TGGAGTAATT as the sequence, how does the switch fluorescence ratio read?
The switch fluorescence ratio was 1.06 ± 0.063.

For TGGAGTCGTG, which switch fluorescence ratio is on record?
Its switch fluorescence ratio is 0.9729 ± 0.0091.

Which switch fluorescence ratio does the source give for TGGATAAGAG here?
The switch fluorescence ratio was 0.975 ± 0.019.

For TGGATATAGT, which switch fluorescence ratio is on record?
The switch fluorescence ratio was 0.9937 ± 0.0038.

For TGGATATGGG, which switch fluorescence ratio is on record?
The switch fluorescence ratio was 1.01 ± 0.028.

TGGATCAAAT was tested. Which switch fluorescence ratio did it give?
The switch fluorescence ratio was 0.9705 ± 0.0049.

For TGGATGAAGT, which switch fluorescence ratio is on record?
The switch fluorescence ratio was 1 ± 0.047.

TGGATGATTG was tested. Which switch fluorescence ratio did it give?
Its switch fluorescence ratio is 0.984 ± 0.022.

TGGATGCATT was tested. Which switch fluorescence ratio did it give?
The switch fluorescence ratio was 1.03 ± 0.015.

How did the switch fluorescence ratio turn out when TGGATGGGTA was run?
The switch fluorescence ratio was 1.22 ± 0.33.

How did the switch fluorescence ratio turn out when TGGATGTATG was run?
The switch fluorescence ratio was 0.99 ± 0.04.

Which switch fluorescence ratio does the source give for TGGATGTGGC here?
Its switch fluorescence ratio is 0.963 ± 0.031.

How did the switch fluorescence ratio turn out when TGGATTACGT was run?
Its switch fluorescence ratio is 1.018 ± 0.0032.

For TGGATTGGAT, which switch fluorescence ratio is on record?
Its switch fluorescence ratio is 1.03 ± 0.035.

For TGGCAAAATT, which switch fluorescence ratio is on record?
Its switch fluorescence ratio is 1.01 ± 0.033.

Which switch fluorescence ratio does the source give for TGGCAAAGGA here?
Its switch fluorescence ratio is 0.989 ± 0.026.

How did the switch fluorescence ratio turn out when TGGCAAATGT was run?
Its switch fluorescence ratio is 0.9818 ± 0.0049.

With TGGCAATATT as the sequence, how does the switch fluorescence ratio read?
Its switch fluorescence ratio is 2.31 ± 1.6.

With TGGCACATAT as the sequence, how does the switch fluorescence ratio read?
Its switch fluorescence ratio is 1.04 ± 0.054.

With TGGCATCTTT as the sequence, how does the switch fluorescence ratio read?
Its switch fluorescence ratio is 1.02 ± 0.018.

For TGGCCATCCT, which switch fluorescence ratio is on record?
The switch fluorescence ratio was 1.62 ± 0.82.

TGGCCCGGGG was tested. Which switch fluorescence ratio did it give?
The switch fluorescence ratio was 0.988 ± 0.031.

How did the switch fluorescence ratio turn out when TGGCCCTTTT was run?
Its switch fluorescence ratio is 1.07 ± 0.13.

Which switch fluorescence ratio does the source give for TGGCCGGGTT here?
Its switch fluorescence ratio is 1.33 ± 0.4.

TGGCCGTGCT was tested. Which switch fluorescence ratio did it give?
Its switch fluorescence ratio is 0.904 ± 0.071.

TGGCCTAGTG was tested. Which switch fluorescence ratio did it give?
Its switch fluorescence ratio is 1.002 ± 0.0071.

For TGGCGAAGGA, which switch fluorescence ratio is on record?
The switch fluorescence ratio was 1.018 ± 0.0019.

With TGGCGAGTCC as the sequence, how does the switch fluorescence ratio read?
Its switch fluorescence ratio is 0.973 ± 0.015.

Which switch fluorescence ratio does the source give for TGGCGGCATG here?
The switch fluorescence ratio was 1.01 ± 0.06.

Which switch fluorescence ratio does the source give for TGGCGGCTTT here?
The switch fluorescence ratio was 1.01 ± 0.041.

With TGGCGGGGGG as the sequence, how does the switch fluorescence ratio read?
The switch fluorescence ratio was 0.994 ± 0.035.

For TGGCGGGGTA, which switch fluorescence ratio is on record?
Its switch fluorescence ratio is 1.02 ± 0.034.

Which switch fluorescence ratio does the source give for TGGCGGGGTC here?
Its switch fluorescence ratio is 0.9992 ± 0.0094.

Which switch fluorescence ratio does the source give for TGGCGGTATA here?
Its switch fluorescence ratio is 0.993 ± 0.012.

With TGGCGGTCGG as the sequence, how does the switch fluorescence ratio read?
Its switch fluorescence ratio is 1 ± 0.048.

With TGGCGTGGGA as the sequence, how does the switch fluorescence ratio read?
The switch fluorescence ratio was 1 ± 0.035.

For TGGCGTTGGT, which switch fluorescence ratio is on record?
Its switch fluorescence ratio is 0.994 ± 0.056.
